In US20020150536, “Nucleic acid ligands to integrins” (GILEAD SCIENCES, INC., published 2002):

Target: integrin alphaV beta3 (Homo sapiens, UniProt P06756;P06756;P05106 P06756:31-889,P06756:891-1048,P05106:27-788)
Experiment: microtiter plate, streptavidin-AP; Mg2+, Ca2+, Mn2+, pH 7.5, 37 C
Conditions: label: 5'-biotin
Procedure: The affinity of individual RNAs and RNA pools for αᵥβ₃ was determined by titration of biotinylated RNA with a small quantity of immobilized integrin. Bound RNA was detected through the biotin moiety. Biotinylated RNA was prepared according to standard transcription protocols, but including a 5-fold molar excess of a 5′-biotin-modified GMP over GTP in the reaction mixture. Methods for synthesizing 5′-biotin-modified guanosine nucleotides are described in WO 98/30720 entitled “Bioconjugation of Oligonucleotides,” specifically incorporated herein by reference in its entirety. The modified nucleotide is incorporated at the 5′ end of the transcript in proportion to its representation in the guanosine pool. 96-well microtiter plates (Immulon 2, Dynatech Laboratories, Inc., Chantilly, Va.) were coated overnight at 4° C. with 100 μL purified αᵥβ₃ at a concentration of 0.25 μg/mL in 20 mM TrisHCl, pH 7.5, 150 mM NaCl, 1 mM MgCl₂, 2 mM CaCl₂, 0.1 mM MnCl₂. Coating concentrations were 0.8 μg/mL for αIIbβ₃ and 0.3 μg/mL for αᵥβ₅. Wells were blocked with 200 μL of a solution of 3% BSA in the same buffer (1 hour at room temperature) then rinsed 3 times with 200 μL binding buffer (50 mM TrisHCl, pH 7.5, 137 mM NaCl, 2.7 mM KCl, 1 mM MgCl₂, 2 mM CaCl₂, 0.1 mM MnCl₂, 0.1% BSA). Individual RNAs or RNA pools were denatured briefly at 93° C. in binding buffer without divalent cations or BSA, then serially diluted in the same buffer. 50 μL binding buffer containing 2×-concentrations of divalent cations and BSA were added to each well, followed by 50 μL RNA dilution. RNAs were allowed to incubate in the integrin-coated wells at 37° C. for 30-60 minutes. Unbound RNAs were removed by 3 rapid washes in binding buffer. To detect bound RNA, 100 μL of a 1:2500 dilution in binding buffer of streptavidin-alkaline phosphatase conjugate (Calbiochem) were incubated in each well for 30 minutes at room temperature, followed by three rapid washes, as above. 100 μL/well p-nitrophenyl phosphate (Sigma Chemical Co., St. Louis, Mo.) was added and incubated at room temperature for 30 minutes. Color development was monitored by absorbance at 405 nm.

integrin alphaV beta3, sequence (P06756 31-889, chain 1 of 3): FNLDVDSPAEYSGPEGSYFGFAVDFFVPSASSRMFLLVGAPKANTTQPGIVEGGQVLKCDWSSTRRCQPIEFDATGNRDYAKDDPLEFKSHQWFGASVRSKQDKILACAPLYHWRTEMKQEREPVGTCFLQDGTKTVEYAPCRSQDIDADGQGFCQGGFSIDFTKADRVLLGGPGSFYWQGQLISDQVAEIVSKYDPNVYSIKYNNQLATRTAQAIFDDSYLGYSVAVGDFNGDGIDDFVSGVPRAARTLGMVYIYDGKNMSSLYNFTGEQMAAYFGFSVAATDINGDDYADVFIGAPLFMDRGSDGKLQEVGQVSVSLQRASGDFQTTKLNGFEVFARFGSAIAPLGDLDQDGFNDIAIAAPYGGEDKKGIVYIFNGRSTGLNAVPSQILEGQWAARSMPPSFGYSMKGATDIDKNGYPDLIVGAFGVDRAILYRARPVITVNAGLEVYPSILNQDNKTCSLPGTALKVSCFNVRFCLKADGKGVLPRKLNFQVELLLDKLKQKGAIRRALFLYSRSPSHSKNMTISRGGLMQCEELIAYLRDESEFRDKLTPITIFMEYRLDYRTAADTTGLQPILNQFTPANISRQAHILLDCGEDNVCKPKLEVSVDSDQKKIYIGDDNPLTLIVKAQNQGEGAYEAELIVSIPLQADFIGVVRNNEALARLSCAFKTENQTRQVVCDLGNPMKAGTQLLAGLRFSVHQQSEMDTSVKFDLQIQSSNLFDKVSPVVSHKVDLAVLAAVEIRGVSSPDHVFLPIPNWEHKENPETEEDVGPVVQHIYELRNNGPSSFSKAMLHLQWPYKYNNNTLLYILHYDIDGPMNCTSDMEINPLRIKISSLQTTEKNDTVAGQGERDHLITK
integrin alphaV beta3, sequence (P06756 891-1048, chain 2 of 3): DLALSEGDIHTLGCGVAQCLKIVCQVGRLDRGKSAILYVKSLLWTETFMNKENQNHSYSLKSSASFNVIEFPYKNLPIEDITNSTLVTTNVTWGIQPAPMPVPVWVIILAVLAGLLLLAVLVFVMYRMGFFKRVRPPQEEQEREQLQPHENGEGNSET
integrin alphaV beta3, sequence (P05106 27-788, chain 3 of 3): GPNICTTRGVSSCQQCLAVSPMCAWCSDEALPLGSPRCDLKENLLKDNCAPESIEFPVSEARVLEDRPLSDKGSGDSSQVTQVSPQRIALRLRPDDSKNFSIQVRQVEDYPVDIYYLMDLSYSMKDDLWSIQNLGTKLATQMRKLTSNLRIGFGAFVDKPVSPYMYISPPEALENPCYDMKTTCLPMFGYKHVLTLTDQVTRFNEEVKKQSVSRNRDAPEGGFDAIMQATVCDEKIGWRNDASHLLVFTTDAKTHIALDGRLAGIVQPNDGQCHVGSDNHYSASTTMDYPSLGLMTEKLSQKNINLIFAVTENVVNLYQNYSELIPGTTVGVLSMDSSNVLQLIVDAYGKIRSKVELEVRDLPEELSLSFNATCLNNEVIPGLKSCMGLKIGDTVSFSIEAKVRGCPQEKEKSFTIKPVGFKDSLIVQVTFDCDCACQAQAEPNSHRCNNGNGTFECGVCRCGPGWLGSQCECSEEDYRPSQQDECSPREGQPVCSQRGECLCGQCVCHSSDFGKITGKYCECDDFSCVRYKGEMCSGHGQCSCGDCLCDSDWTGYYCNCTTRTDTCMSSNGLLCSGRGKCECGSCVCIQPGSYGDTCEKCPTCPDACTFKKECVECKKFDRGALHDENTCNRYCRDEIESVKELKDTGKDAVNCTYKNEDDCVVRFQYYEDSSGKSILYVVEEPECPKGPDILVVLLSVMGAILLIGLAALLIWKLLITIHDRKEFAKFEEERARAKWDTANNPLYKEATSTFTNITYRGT

Binder | Kd [nM]
15.20 (ssRNA, 2'-F C and U) RNA: GGGAGACAAGAAUAAACGCUCAAUUCAACGCUGUCCAAGGGCUUAUAUGAGCGCAUUAUACCCUUCGACAGGAGGCUCACAACAGGC | 20
7.77 (ssRNA, 2'-F C and U) RNA: GGGAGACAAGAAUAAACGCUCAAUUCAACGAUGUUGAGGGGCUUAUAUGAGCGCAUUAUACCCUUCGACAGGAGGCUCACAACAGGC | 770
15.53 (ssRNA, 2'-F C and U) RNA: GGGAGACAAGAAUAAACGCUCAAUUCAACGCUGUCCUAGGGCUUAUAUGAGCGCAGGAUACCCUUCGACAGGAGGCUCACAACAGGC | 70
7.38 (ssRNA, 2'-F C and U) RNA: GGGAGACAAGAAUAAACGCUCAAUUCAACGCUGUCCAAGGGCUUAUAUGAGCGCGUUAUACCCUUCGACAGGAGGCUCACAACAGGC | 49
7.54 (ssRNA, 2'-F C and U) RNA: GGGAGACAAGAAUAAACGCUCAAUUCGACGCUGUUCAAGGGCUUAUAUGAGCGCGUUAUACCCUUCGACAGGAGGCUCACAACAGGC | 230
7.5 (ssRNA, 2'-F C and U) RNA: GGGAGACAAGAAUAAACGCUCAAGGUAGUAAAUGGACUCCUGCCAUCCAAUACUAUCUCUGAGUUCGACAGGAGGCUCACAACAGGC | > 1000
15.19 (ssRNA, 2'-F C and U) RNA: GGGAGACAAGAAUAAACGCUCAAUGUAGCCGCAUGUCGAGCAGCAAUUCCUGCCAUUGUAGGUUCGACAGGAGGCUCACAACAGGC | 770
7.13 (ssRNA, 2'-F C and U) RNA: GGGAGACAAGAAUAAACGCUCAAUGUAGUCGCAUGUCGAGCAGCAAUUCCUGCCAUUGUAGGUUCGACAGGAGGCUCACAACAGGC | > 1000
15.34 (ssRNA, 2'-F C and U) RNA: GGGAGACAAGAAUAAACGCUCAAUCCCACCCUGCCUUGUCUGUUUGAUAGAGACACUGUCCUUUUCGACAGGAGGCUCACAACAGGC | 190
15.18 (ssRNA, 2'-F C and U) RNA: GGGAGACAAGAAUAAACGCUCAAUUCAACGCUGUGAAGGGCUUAUAUGAGCGGAUUACCCUUCGACAGGAGGCUCACAACAGGC | 2
17.2 (ssRNA, 2'-F C and U) RNA: GGGAGACAAGAAUAAACGCUCAAUUCUACGCUGUGAAGGGCUUAUAUGAGCGGAUUACCCUUCGACAGGAGGCUCACAACAGGC | 2
17.7 (ssRNA, 2'-F C and U) RNA: GGGAGACAAGAAUAAACGCUCAAUUCUACGCUGUGAAGGGCUUAUACGAGCGGAUUACCCUUCGACAGGAGGCUCACAACAGGC | 6
17.11 (ssRNA, 2'-F C and U) RNA: GGGAGACAAGAAUAAACGCUCAAUUCUACGCUGUGAAGGGCUUAUAUGAGCGAAUUACCCUUCGACAGGAGGCUCACAACAGGC | 4
15.46 (17.20) (ssRNA, 2'-F C and U) RNA: GGGAGACAAGAAUAAACGCUCAAUUCGACGCUGUGAAGGGCUUAUAUGAGCGGAUUACCCUUCGACAGGAGGCUCACAACAGGC | 40
15.50 (17.3) (ssRNA, 2'-F C and U) RNA: GGGAGACAAGAAUAAACGCUCAAUUCGACGCUGUGAAGGGCUUAUACGAGCGGAUUACCCUUCGACAGGAGGCUCACAACAGGC | 30
15.39 (ssRNA, 2'-F C and U) RNA: GGGAGACAAGAAUAAACGCUCAAUCAAUCUCGGACUAGACUAACGACCUUGGUUGACGCUCAUUCGACAGGAGGCUCACAACAGGC | 410
15.4 (ssRNA, 2'-F C and U) RNA: GGGAGACAAGAAUAAACGCUCAAUGAUUUCAUGACUUAUGCCGCCGGCAUGACUUCAAUGACGUUCGACAGGAGGCUCACAACAGGC | 2000

Binder | Kd [nM]
15.5 (ssRNA, 2'-F C and U) RNA: GGGAGACAAGAAUAAACGCUCAAGCAUUCAAAAUUUGCGAGAACGAAUAGAAGUCCGAGAGCCUUCGACAGGAGGCUCACAACAGGC | 4000
15.13 (ssRNA, 2'-F C and U) RNA: GGGAGACAAGAAUAAACGCUCAAGCGGGAUUUUCCUGAUCAUCCCACUGAUUCGGGGCCUUACUUCGACAGGAGGCUCACAACAGGC | 790
17.5 (ssRNA, 2'-F C and U) RNA: GGGAGACAAGAAUAAACGCUCAAUUCGACGCUGUGAAGGGCUUAUAUGAGCGGAUACACCCUUCGACAGGAGGCUCACAACAGGC | 5
7.41 (ssRNA, 2'-F C and U) RNA: GGGAGACAAGAAUAAACGCUCAAGCGAGCCUAUUGUCUAAGAUGCACCAGGCCUGUUAAGCAUUUCGACAGGAGGCUCACAACAGGC | > 1000
15.43 (ssRNA, 2'-F C and U) RNA: GGGAGACAAGAAUAAACGCUCAACGCCGUUAUCACGACGUGCGUUCUGGGCGGUACUCGCGCAUUCGACAGGAGGCUCACAACAGGC | 45
15.21 (ssRNA, 2'-F C and U) RNA: GGGAGACAAGAAUAAACGCUCAACGGUGAAGACCUCUAUUAACAACAUGACCUGCCUGCGUUGUUCGACAGGAGGCUCACAACAGGC | 200
15.3 (17.17) (ssRNA, 2'-F C and U) RNA: GGGAGACAAGAAUAAACGCUCAAUUCAACGUUGUCCAAGGGCUUAUAUGAGCGGAUUACCCUUCGACAGGAGGCUCACAACAGGC | 8
17.8 (ssRNA, 2'-F C and U) RNA: GGGAGACAAGAAUAAACGCUCAAUUCAACGUUGUCUAAGGGCUUAUAUGAGCGGAUUACCCUUCGACAGGAGGCUCACAACAGGC | 18
15.14 (ssRNA, 2'-F C and U) RNA: GGGAGACAAGAAUAAACGCUCAAUUCAACAUUGUCCAAGGGCUUAUAUGAGCGGAUUACCCUUCGACAGGAGGCUCACAACAGGC | 6
15.10 (ssRNA, 2'-F C and U) RNA: GGGAGACAAGAAUAAACGCUCAAUUCAACGCUGUUCAAGGGCUUAUAUGAGCGGAUUACCCUUCGACAGGAGGCUCACAACAGGC | 20
17.1 (ssRNA, 2'-F C and U) RNA: GGGAGACAAGAAUAAACGCUCAAUUCAACGCUGUCAAAGGGCUUAUAUAAGCGGAUUACCCUUCGACAGGAGGCUCACAACAGGC | 380
15.7 (ssRNA, 2'-F C and U) RNA: GGGAGACAAGAAUAAACGCUCAAUUCUACGAUGUCAAAGGGCUUAUAUGAGCGGAUUACCCUUCGACAGGAGGCUCACAACAGGC | 5
17.13 (ssRNA, 2'-F C and U) RNA: GGGAGACAAGAAUAAACGCUCAAUUCAACGCUGUCCAAGGGCUUAUAUGGGCGGAUUACCCUUCGACAGGAGGCUCACAACAGGC | 10
15.8 (ssRNA, 2'-F C and U) RNA: GGGAGACAAGAAUAAACGCUCAAUUCGACGCUGUUGAAGGGCUUAUACGAGCGGAUUACCCUUCGACAGGAGGCUCACAACAGGC | 5
15.17 (ssRNA, 2'-F C and U) RNA: GGGAGACAAGAAUAAACGCUCAAUUCAACGUUGUCAAAGGGCUUAUACGGGCGGAUUACCCUUCGACAGGAGGCUCACAACAGGC | 4
15.2 (ssRNA, 2'-F C and U) RNA: GGGAGACAAGAAUAAACGCUCAAUUCAACGUUGUCAAAGGGCUUAUAUGAGCGGAUUACCCUUCGACAGGAGGCUCACAACAGGC | 6
7.66 (ssRNA, 2'-F C and U) RNA: GGGAGACAAGAAUAAACGCUCAAGUGAACCGAUAAGCGAAAGUAGUACCCCUGCUUGACUACUUUCGACAGGAGGCUCACAACAGGC | > 1000
